The target in assay [1] is T1, truncated hTfR1 of SEQ ID NO:122 (human, UniProt P02786 122-760).
T1 construct: also called human TfR1; Human TfR1
Put plainly: SPR, TfR1 amine-coupled, Fab injected, 1:1 fit. In outline:
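Biacore 8K at 25 °C in HBS-EP+, single cycle kinetics with Fab as analyte in four 2-fold steps from 100 nM; 120 s contact at 30 μl/min, 1000 s dissociation, 3M MgCl₂ regeneration. Kinetics fitted to a 1:1 interaction model.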

For assay [2], the target named is T2, truncated cTfR1 of SEQ ID NO:123 (cynomolgus monkey, UniProt Q5RDH6 122-760 (Pongo abelii entry)).
T2 construct: also called cynomolgus TfR1
T2 chain: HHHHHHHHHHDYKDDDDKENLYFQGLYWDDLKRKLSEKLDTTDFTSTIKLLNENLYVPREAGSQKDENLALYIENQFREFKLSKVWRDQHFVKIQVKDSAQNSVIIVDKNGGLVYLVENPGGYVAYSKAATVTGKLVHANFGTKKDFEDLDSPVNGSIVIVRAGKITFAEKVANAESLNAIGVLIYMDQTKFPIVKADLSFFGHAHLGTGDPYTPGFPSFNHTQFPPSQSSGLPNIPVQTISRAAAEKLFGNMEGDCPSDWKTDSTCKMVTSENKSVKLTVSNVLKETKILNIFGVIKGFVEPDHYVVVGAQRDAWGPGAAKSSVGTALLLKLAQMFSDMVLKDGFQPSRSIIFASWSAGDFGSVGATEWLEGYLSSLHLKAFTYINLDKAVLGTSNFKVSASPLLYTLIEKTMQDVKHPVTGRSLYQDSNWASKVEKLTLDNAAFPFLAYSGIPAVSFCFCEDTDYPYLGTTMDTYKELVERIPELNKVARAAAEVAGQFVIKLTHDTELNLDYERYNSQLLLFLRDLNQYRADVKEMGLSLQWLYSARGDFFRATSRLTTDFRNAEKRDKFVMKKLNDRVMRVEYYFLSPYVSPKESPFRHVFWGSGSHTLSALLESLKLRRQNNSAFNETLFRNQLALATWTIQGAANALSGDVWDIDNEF
Put plainly: SPR (Biacore 8K), single cycle kinetics: cTfR1 amine-coupled on a CM5 chip, Fab injected in a 2-fold series of four steps from 100 nM. The procedure:
Binding of the purified Fabs to human and cynomolgus TfR1 was evaluated using either SPR (FIG. 44) or indirect ELISA (FIG. 45). For SPR, a Biacore 8K instrument (Cytiva) was used. […] The Fabs were injected over the chip using a 2-fold dilution series in four steps starting at 100 nM. The interaction was measured using the single cycle kinetics method with a contact time of 120 s at a flow rate of 30 μl/min followed by a dissociation time of 1000 s. Regeneration of the surface between cycles was done by injecting 3M MgCl₂. The binding data was fitted to a 1:1 interaction model. The Fabs were diluted in HBS-EP+ (Cytiva, #BR100669). Experiments were performed at 25° C.
On the technique in general: Surface plasmon resonance follows binding to a sensor surface in real time, without labels.

Assay [3] concerns the target T1, truncated hTfR1 of SEQ ID NO:122. In words: SPR, TfR1 amine-coupled, Fab injected, 1:1 fit. Here is the method:
(§1) The interaction was measured using the single cycle kinetics method with a contact time of 120 s at a flow rate of […] followed by a dissociation time of 600 s. Regeneration of the surface between cycles was done by injecting 3M MgCl₂. The binding data were fitted to a 1:1 interaction model. The Fabs were diluted in HBS-EP+ (Cytiva, #BR100669). Experiments were performed at 25° C.
The source holds these as a separate data set.

The target in assay [4] is T2, truncated cTfR1 of SEQ ID NO:123. In words: SPR, TfR1 amine-coupled, Fab injected, 1:1 fit. Here is the method:
as §1

For assay [5], the target named is T3, hTfR1 (recombinant, construct not specified) (human, UniProt P02786 89-760, limits assumed).
T3 construct: also called biotinylated hTfR1
In words: indirect ELISA on an hTfR1 coat, detection with anti-mouse IgG F(ab')2, normalised A450 against log antibody concentration in pM. (In general: An ELISA detects its analyte on a solid surface through an enzyme-linked reagent.)

Assay [6] deals with T3, hTfR1 (recombinant, construct not …). Put plainly: BLI: hTfR1 captured on biotinylated human holo-transferrin on streptavidin sensors, 15 nM Fab in solution, 120 s association, 300 s dissociation. Here is the method:
A more detailed binding analysis by BLI was performed on purified, selected antibodies. […] For example, the BLI instrument Octet Red384 was used to measure binding between immobilized TfR1 and the tested Fab fragments in solution. […] Antibody binding to TfR1 was measured during an association phase of 120 s and a dissociation phase of 300 s.
For orientation: In BLI a coated tip is dipped into the sample, and binding shifts an interference pattern.

Assay [7] deals with T4, AβpE3-40 monomer (UniProt P05067 674-711, pyroglutamate at position 3 (N-terminal residue)). Put plainly: cell-based or functional assay.
T4 sequence (P05067 674-711): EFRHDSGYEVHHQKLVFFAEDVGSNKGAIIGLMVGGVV
Assay [8] addresses T4, AβpE3-40 monomer. In words: SPR, antibody immobilised, monomer injected, 1:1 fit. Here is the method: Single cycle kinetics with the binding molecules immobilized on a CM5 chip was used to measure binding to the AβpE3-40 monomer. For the measurements, 5 μg/ml of analyte binding molecule was immobilized on the chip. […] Regeneration of the surface between cycles was done by injecting 30 μl 3 M MgCl₂ (Cytiva, cat. No. 29234600). The binding data was fitted to a 1:1 interaction model.

In assay [9] the target is T4, AβpE3-40 monomer. In words: inhibition ELISA, antigen titrated in solution, AβpE3-40 coat. Here is the method:
(§2) The tested molecules were incubated at a fixed concentration (0.1 μg/ml) with titrating concentrations of the different AβpE3 antigens. After incubation for 45 min at 900 rpm to reach equilibrium, the samples were added to a blocked and washed ELISA plate with an AβpE3-40 coat (0.5 μM). The samples were incubated on the plate for 25 min without shaking followed by washing, incubation with detection antibody, another washing step and finally incubation with alkaline phosphatase substrate.

Another assay has as its target T5, AβpE3-42 protofibrils (UniProt P05067 674-713, pyroglutamate at position 3 (N-terminal residue)).
T5 construct: range 3-42 (Aβ numbering); Soluble aggregates made from AβpE3-42 peptide, purified in the void peak of SEC; also called AβpE3-42 PF
The assay is described as above. The procedure:
as §2

The target in another assay is T6, hTfR1 on cell surfaces (human, UniProt P02786 1-760).
T6 construct: Endogenous receptor on human cell lines; also called endogenous hTfR1 on hCMEC/D3, THP-1 and K562 cells; CD71
Put plainly: flow cytometry on Fc-blocked K562 cells, 1 h at 4°C, detection with PE anti-human IgG Fc.

The values below come from US20250388664A1 (BIOARCTIC, published 2025).

Like-named read-outs stand apart in the source and are kept apart here.

T5 sequence (P05067 674-713): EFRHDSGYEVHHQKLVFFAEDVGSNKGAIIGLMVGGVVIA

B1: h26D3 variant LC5 Fab (Fab, V domains shown)
VH: EVQLVQSGAEVKKPGSSVKVSCKASGYIFTDYNMDWVRQAPGQGLEWIGDINPDYDTTSYNEKFKGRATLTVDKSTSTAYMELSSLRSEDTAVYYCARGGYSGSSYYHPMDYWGQGTLVTVSS
VL: DIQMTQSPSSVSASVGDRVTITCKSSQSLLYSTNQKNYLAWYQQKPGKAPKLLIYWASTRESGVPSRFSGSGSGTDFTLTISSLQPEDFATYYCQQAFIYPRTFGQGTKVEIK
notes: Single-mutant His-tagged Fab; also called Y97A
For B1, in assay [1], the Kd – broadly, the equilibrium constant for the complex coming apart – stood at 240 nM. In [2], the binding result is listed as “binds”.

B2: 26D3-Fab (Fab, V domains shown)
VH: EVQLQQFGVELVKPGASVKISCKASGYIFTDYNMDWVKQSHGKSLEWIGDINPDYDTTSYNEKFKGKATLTVDKSSSTAYMELRSLTSEDTAVYYCARGGYSGSSYYHPMDYWGQGTSVTVSS
VL: DIVMSQSPSSLAVSVGEKITMSCKSSQSLLYSTNQKNYLAWYQQKPGQSPELLIYWASTRESGVPDRFTGSGSGTDFTLTISNVRAEDLAVYYCQQYFIYPRTFGGGTKLEIK
notes: Fab of murine 26D3; also called murine 26D3 Fab
As to B2, the Kd was 3.6 nM in [3] and 10 nM in assay [4]. In addition, in assay [5], the EC50 (read off the curve) (in general, the concentration at which the effect is half-maximal) is around 0.06 nM.

B3: 37D10-Fab (Fab, V domains shown)
VH: QVQLQQSGAELVRPGTSVKISCKASGYAFTNYWLGWVKQRPGHGLEWIGDIFPGSDNTYYNEKFKGKATLTADKSSSTAYMQLSSLASEDSAVYFCARSGNFYAMDYWGQGTSVTVSS
VL: ENVLTQSPAIMSASPGEKVTMTCSASSSVNYMNWYQQKSSTFPKLWIYDTSKLASGVPGRFSGSGSGKFYSLTISSMEAEDVATYYCFQGSGYPFTFGSGTKLEIK
notes: Fab of murine 37D10
As to B3, the binding result in assay [6] is recorded as “binds”.

B4: BA003 (antibody, human IgG1, kappa)
light: EIVLTQSPLSLSVTLGQSASISCRSSQSLLDSNGKTYLHWFILRPGQSPRRLIYLVSILDSGVPDRFSGSGSGTDFTLKISRVEAEDVGVYYCVQGTHFPFTFGSGTKLEIKRTVAAPSVFIFPPSDEQLKSGTASVVCLLNNFYPREAKVQWKVDNALQSGNSQESVTEQDSKDSTYSLSSTLTLSKADYEKHKVYACEVTHQGLSSPVTKSFNRGEC
heavy: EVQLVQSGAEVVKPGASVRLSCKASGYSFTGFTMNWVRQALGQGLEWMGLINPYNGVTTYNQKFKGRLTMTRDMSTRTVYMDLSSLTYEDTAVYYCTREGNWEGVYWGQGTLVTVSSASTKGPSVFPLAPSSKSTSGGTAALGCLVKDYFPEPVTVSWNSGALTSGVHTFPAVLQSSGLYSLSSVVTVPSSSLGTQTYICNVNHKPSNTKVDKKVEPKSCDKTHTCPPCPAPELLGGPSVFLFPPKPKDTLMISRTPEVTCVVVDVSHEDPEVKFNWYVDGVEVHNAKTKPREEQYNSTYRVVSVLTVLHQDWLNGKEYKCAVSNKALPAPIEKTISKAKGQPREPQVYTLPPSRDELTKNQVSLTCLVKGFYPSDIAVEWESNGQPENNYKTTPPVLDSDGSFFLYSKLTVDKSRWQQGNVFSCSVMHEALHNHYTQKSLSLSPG
notes: also called comparator antibody BA003; control antibody BA003
In the case of B4, in the assay with AβpE3-40 monomer [7], the “Uptake of AβpE3-40 monomers in THP-1 cells, EC50” value was 2.2 nM. In the assay with AβpE3-40 monomer [8], the Kd turned out to be 2.33 nM; the koff (commonly a measure of how fast the partners let go of each other) worked out at 0.000127 s⁻¹; the association rate constant (kon) (as a rule, the rate constant with which the complex forms) was determined as 54600 M⁻¹ s⁻¹. The IC50 (commonly the concentration that inhibits the measured activity by half) with AβpE3-40 monomer [9] worked out at 1.1 nM. Moreover, in the assay with AβpE3-42 protofibrils, the IC50 turned out to be 2.2 nM. In addition, the binding result with hTfR1 on cell surfaces is recorded as “no binding (tested: 10000 nM)”.
